Assay [1] concerns the target F-actin (skeletal muscle actin, polymerised) ( (rabbit or chicken skeletal …, UniProt P68135 1-377)). The experiment in a line: fluorescence polarisation. Background: In fluorescence polarisation assays a small probe gives low polarisation when free and higher when bound to something large.
The target in assay [2] is T1, actin-binding domain 1 of human plastin 2 (human, UniProt P13796 120-375).
T1 sequence (looked up): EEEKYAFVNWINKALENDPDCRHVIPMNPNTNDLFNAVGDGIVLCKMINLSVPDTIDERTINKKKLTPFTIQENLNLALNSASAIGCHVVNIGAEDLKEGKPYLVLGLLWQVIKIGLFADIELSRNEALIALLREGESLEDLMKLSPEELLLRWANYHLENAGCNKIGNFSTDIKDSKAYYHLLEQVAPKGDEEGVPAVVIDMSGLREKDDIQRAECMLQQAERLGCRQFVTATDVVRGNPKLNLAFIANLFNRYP
Description: fluorescence polarisation.

The Kd is the concentration at which binding is half-saturated.

B1: actin-binding domain 2 of human plastin 2, unlabeled (domain or fragment)
chain: TREERTFRNWMNSLGVNPRVNHLYSDLSDALVIFQLYEKIKVPVDWNRVNKPPYPKLGGNMKKLENCNYAVELGKNQAKFSLVGIGGQDLNEGNRTLTLALIWQLMRRYTLNILEEIGGGQKVNDDIIVNWVNETLREAKKSSSISSFKDPKISTSLPVLDLIDAIQPGSINYDLLKTENLNDDEKLNNAKYAISMARKIGARVYALPEDLVEVNPKMVMTVFACLMGKGMKRV
Regarding B1, the equilibrium dissociation constant (Kd) in assay [1] was around 4 nM.

B2: fluorescein-maleimide-labeled actin-binding domain 2 of human plastin 2 (domain or fragment, UniProt P13796 394-627, looked up)
chain: TREERTFRNWMNSLGVNPRVNHLYSDLSDALVIFQLYEKIKVPVDWNRVNKPPYPKLGGNMKKLENCNYAVELGKNQAKFSLVGIGGQDLNEGNRTLTLALIWQLMRRYTLNILEEIGGGQKVNDDIIVNWVNETLREAKKSSSISSFKDPKISTSLPVLDLIDAIQPGSINYDLLKTENLNDDEKLNNAKYAISMARKIGARVYALPEDLVEVNPKMVMTVFACLMGKGMKRV
modifications: labeled with fluorescein-5-maleimide (FM); labeled residue not stated
In turn, B2 showed a dissociation constant (Kd) in assay [2] of 11.4 nM.

These data come from article PMC9358775 (Nature structural & molecular biology, 2022).
